Several values for one entry are separate records, joined by “and”; a condition that tells them apart may be missing. Equal values may be shown once. Starred links: 1 amine or outer side, 2 acyl side, 3 side chain; linkers in the order of their positions; H or OH if unused. Positions of bridges follow the written chain, without caps; N, C: chain ends. No end group written: not given here. TBMB = c1c(C[*:1])cc(C[*:3])cc1C[*:2]
How the values were obtained:
kallikrein = kallikrein (UniProt P03952 20-638, limits assumed); test: cell-based or functional assay
MDM2 (res 2-125) [1] = target: T1, MDM2 (res 2-125) (UniProt Q00987 2-125); test: fluorescence anisotropy titration, λex=295 nm
T1 construct: range 2-125

MDM2 (res 2-125) [2] = target: T1, MDM2 (res 2-125); test: fluorescence anisotropy titration, intrinsic Trp fluorescence, PBS 5 mM DTT, 23 C
MDM2 (res 2-125) [3] = target: T1, MDM2 (res 2-125); test: fluorescence anisotropy titration, MDM2 (res 2-125) titrated into the peptide, quadratic 1:1 fit with linear drift term; unit from the axis uM Mdm2
[4] = target: T2, Mdm2 (construct limits not stated) (UniProt Q00987 2-125, limits assumed); test: method not given; affinity-matured Pep48T, estimated
bovine serum albumin [5] = target: T3, bovine serum albumin (bovine, UniProt P02769 25-607); test: fluorescence anisotropy titration of BSA into 500 nM peptide
T3 construct: also called BSA

[6] = target: T2, Mdm2 (construct limits not stated at …); test: fluorescence anisotropy titration of 18.8 µM Mdm2 into 500 nM peptide; data could not be fitted
[7] = target: T2, Mdm2 (construct limits not stated at …); test: fluorescence anisotropy (FIG. 3); PK15L1-PEP48L1 bicycle (FIG. 3)
MDM2 (res 2-125) [8] = target: T1, MDM2 (res 2-125); test: fluorescence anisotropy titration, MDM2 (res 2-125) titrated into the peptide, quadratic 1:1 fit with linear drift term; unit from the axis MDM2, uM
MDM2 (res 2-125) [9] = target: T1, MDM2 (res 2-125); test: as described in Example 1 (method not retold)
MDM2 (res 2-125) [10] = target: T1, MDM2 (res 2-125); test: fluorescence anisotropy titration, λex=280 nm; λex=280 nm
MDM2 (res 2-125) [11] = target: T1, MDM2 (res 2-125); test: fluorescence anisotropy (Example 1, retold as a range); lower end of range retold from Example 1
MDM2 (res 2-125) [12] = target: T1, MDM2 (res 2-125); test: fluorescence anisotropy (Example 1, retold as a range); upper end of range retold from Example 1
bovine serum albumin [13] = target: T3, bovine serum albumin; test: fluorescence anisotropy, comparison of Kd
bovine serum albumin [14] = target: T3, bovine serum albumin; test: fluorescence anisotropy titration of BSA into peptide
bovine serum albumin [15] = target: T3, bovine serum albumin; test: fluorescence anisotropy titration of BSA into 200 nM peptide
bovine serum albumin [16] = target: T3, bovine serum albumin; test: fluorescence anisotropy titration of BSA into 0.4 µM peptide

T2 sequence (Q00987 2-125 limits assumed): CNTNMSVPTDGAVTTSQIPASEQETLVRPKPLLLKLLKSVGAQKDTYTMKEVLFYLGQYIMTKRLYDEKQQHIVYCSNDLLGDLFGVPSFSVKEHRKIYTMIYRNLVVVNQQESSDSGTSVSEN
T1 sequence (Q00987 2-125 limits assumed): as above
T3 sequence (P02769 25-607 limits assumed): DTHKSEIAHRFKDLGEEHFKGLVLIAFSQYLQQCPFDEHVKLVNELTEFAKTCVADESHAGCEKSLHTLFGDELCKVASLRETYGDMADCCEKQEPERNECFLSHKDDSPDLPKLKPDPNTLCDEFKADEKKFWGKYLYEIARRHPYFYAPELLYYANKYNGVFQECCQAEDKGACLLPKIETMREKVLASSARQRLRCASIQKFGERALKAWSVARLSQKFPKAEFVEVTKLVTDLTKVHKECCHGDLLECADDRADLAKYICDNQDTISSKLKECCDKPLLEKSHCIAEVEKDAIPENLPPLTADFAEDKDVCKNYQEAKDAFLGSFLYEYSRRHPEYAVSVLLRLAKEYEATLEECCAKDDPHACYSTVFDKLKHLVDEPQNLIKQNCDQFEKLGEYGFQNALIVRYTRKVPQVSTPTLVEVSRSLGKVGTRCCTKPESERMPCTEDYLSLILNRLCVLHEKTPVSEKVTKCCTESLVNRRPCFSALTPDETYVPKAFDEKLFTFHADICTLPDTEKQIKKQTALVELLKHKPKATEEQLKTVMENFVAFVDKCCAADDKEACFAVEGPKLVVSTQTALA
kallikrein, sequence (P03952 20-638 limits assumed): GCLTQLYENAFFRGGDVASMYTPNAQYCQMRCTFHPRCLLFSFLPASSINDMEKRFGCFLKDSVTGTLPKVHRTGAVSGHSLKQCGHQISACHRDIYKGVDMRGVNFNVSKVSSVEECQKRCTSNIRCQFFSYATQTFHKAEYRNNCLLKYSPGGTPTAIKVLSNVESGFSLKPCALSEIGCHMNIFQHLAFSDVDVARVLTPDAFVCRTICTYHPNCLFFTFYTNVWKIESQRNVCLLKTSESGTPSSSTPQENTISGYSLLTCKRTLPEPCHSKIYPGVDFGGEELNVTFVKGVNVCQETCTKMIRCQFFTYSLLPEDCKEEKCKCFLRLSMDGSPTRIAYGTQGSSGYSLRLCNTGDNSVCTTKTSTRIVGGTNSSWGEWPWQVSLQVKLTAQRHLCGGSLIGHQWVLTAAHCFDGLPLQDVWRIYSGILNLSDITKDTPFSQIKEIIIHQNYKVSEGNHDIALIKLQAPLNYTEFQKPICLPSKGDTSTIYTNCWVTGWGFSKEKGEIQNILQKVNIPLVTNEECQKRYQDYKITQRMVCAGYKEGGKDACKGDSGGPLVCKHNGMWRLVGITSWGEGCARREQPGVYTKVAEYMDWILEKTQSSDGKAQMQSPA

H-ALCIFDLGFCSDRFRNCPADE-OH (linker 3-10-17 via TBMB) [X-CG4L1-PK15L1-Y bicyclic] was tested, and the “IC50 for inhibition of kallikrein activity” value (“IC50 for inhibition” below) (kallikrein) was 15000 nM.

B1: PEP10 bicyclic peptide (synthetic peptide of phage clone 10 conjugated to TBMB) (peptide)
peptide: H-SCELWNPKCRLSPFECKG-OH
modifications: linker 2-9-16 via TBMB
notes: measured in PBS with 5 mM DTT; also called peptide 10
B1 was tested, and the Kd (MDM2 (res 2-125) [1]) was 267 nM, the Kd (MDM2 (res 2-125) [2]) was 250 to 750 nM and the Kd (MDM2 (res 2-125) [3]) was 268 nM.

SGCVRFGWTCPTVMCGG (linker 3-10-15 via TBMB; not fully specified (N-terminus, C-terminus)) [Pep48T (affinity-matured Pep48 derivative, TBMB conjugate)] was tested, and the Kd [4] was roughly 100 nM.

B2: bicyclic Fmoc-WGGGA-PEP48L1-PK15L1 (peptide)
peptide: WGGGACVRFGWTCSDRFRNCG
HELM: PEPTIDE1{[O=C(OCC1c2ccccc2-c2ccccc21)[*:2]].W.G.G.G.A.C.V.R.F.G.W.T.C.S.D.R.F.R.N.C.G.[am]}|CHEM1{[c1c(C[*:1])cc(C[*:3])cc1C[*:2]]}$PEPTIDE1,CHEM1,7:R3-1:R1|PEPTIDE1,CHEM1,14:R3-1:R2|PEPTIDE1,CHEM1,21:R3-1:R3$$$V2.0
SMILES: CC(C)[C@@H]1NC(=O)[C@@H](NC(=O)[C@H](C)NC(=O)CNC(=O)CNC(=O)CNC(=O)[C@H](Cc2c[nH]c3ccccc23)NC(=O)OCC2c3ccccc3-c3ccccc32)CSCc2cc3cc(c2)CSC[C@H](NC(=O)[C@H]([C@@H](C)O)NC(=O)[C@H](Cc2c[nH]c4ccccc24)NC(=O)CNC(=O)[C@H](Cc2ccccc2)NC(=O)[C@H](CCCNC(=N)N)NC1=O)C(=O)N[C@@H](CO)C(=O)N[C@@H](CC(=O)O)C(=O)N[C@@H](CCCNC(=N)N)C(=O)N[C@@H](Cc1ccccc1)C(=O)N[C@@H](CCCNC(=N)N)C(=O)N[C@@H](CC(N)=O)C(=O)N[C@H](C(=O)NCC(N)=O)CSC3
notes: also called Fmoc PEP48L1-PK15L1 bicyclic; FmocPEP48L1-PK15L1
For B2, the “IC50 for inhibition” value (kallikrein) was 17000 nM, the Kd (bovine serum albumin [5]) was 62 nM and the Kd [6] was less than 1000 nM.

B3: PK15L1-PEP48L1 bicyclic (peptide)
peptide: ACSDRFRNCVRFGWTCG
modifications: linker 2-9-16 via TBMB
notes: also called PK15L1-PEP48L1 bicyclic peptide; dual specific peptide comprising loops from PEP48 and PK15
B3 was tested, and the “IC50 for inhibition” value (kallikrein) was 11000 nM, the Kd [7] was 1550 nM and the Kd (MDM2 (res 2-125) [8]) was 1560 nM.

B4: PEP48 bicyclic peptide (synthetic peptide of phage clone 48 conjugated to TBMB) (peptide)
peptide: H-SCVRFGWTCDNSWHGCKG-OH
modifications: linker 2-9-16 via TBMB
notes: measured in PBS with 5 mM DTT; also called peptide 48; PEP48L1-PEP48L2 bicyclic peptide
B4 showed a Kd (MDM2 (res 2-125) [9]) of roughly 660 nM, a Kd (MDM2 (res 2-125) [1]) of 567 nM and a Kd (MDM2 (res 2-125) [10]) of 760 nM. The Kd (MDM2 (res 2-125) [2]) was 250 to 750 nM, the Kd (MDM2 (res 2-125) [11]) was no less than 500 nM and the Kd (MDM2 (res 2-125) [12]) was no more than 800 nM. For the same binder, the Kd (MDM2 (res 2-125) [3]) was 760 nM and 568 nM.

ACSDRFRNCPADEALCG (linker 2-9-16 via TBMB) [PK15L1-PK15L2 bicyclic] was tested, and the “IC50 for inhibition” value (kallikrein) was 13 nM.

B5: CG4L1-PK15L1-PK15L2 tricyclic (peptide)
peptide: ALCIFDLGFCSDRFRNCPADE
HELM: PEPTIDE1{A.L.C.I.F.D.L.G.F.C.S.D.R.F.R.N.C.P.A.D.E}|CHEM1{[c1c(C[*:1])cc(C[*:3])cc1C[*:2]]}$PEPTIDE1,CHEM1,3:R3-1:R1|PEPTIDE1,CHEM1,10:R3-1:R2|PEPTIDE1,CHEM1,17:R3-1:R3|PEPTIDE1,PEPTIDE1,1:R1-21:R2$$$V2.0
SMILES: CC[C@H](C)[C@@H]1NC(=O)[C@@H]2CSCc3cc4cc(c3)CSC[C@H](NC(=O)[C@H](CC(N)=O)NC(=O)[C@H](CCCNC(=N)N)NC(=O)[C@H](Cc3ccccc3)NC(=O)[C@H](CCCNC(=N)N)NC(=O)[C@H](CC(=O)O)NC(=O)[C@H](CO)NC(=O)[C@H](CSC4)NC(=O)[C@H](Cc3ccccc3)NC(=O)CNC(=O)[C@H](CC(C)C)NC(=O)[C@H](CC(=O)O)NC(=O)[C@H](Cc3ccccc3)NC1=O)C(=O)N1CCC[C@H]1C(=O)N[C@@H](C)C(=O)N[C@@H](CC(=O)O)C(=O)N[C@@H](CCC(=O)O)C(=O)N[C@@H](C)C(=O)N[C@@H](CC(C)C)C(=O)N2
B5 was tested, and the “IC50 for inhibition” value (kallikrein) was 15000 nM.

B6: Fmoc-FGSGD-NH2 (peptide)
peptide: FGSGD
HELM: PEPTIDE1{[O=C(OCC1c2ccccc2-c2ccccc21)[*:2]].F.G.S.G.D.[am]}$$$$V2.0
SMILES: NC(=O)[C@H](CC(=O)O)NC(=O)CNC(=O)[C@H](CO)NC(=O)CNC(=O)[C@H](Cc1ccccc1)NC(=O)OCC1c2ccccc2-c2ccccc21
With B6 the “fold tighter than the glycine variant (Fmoc-GGSGD-NH2)” value (bovine serum albumin [13]) was 8 fold and the Kd (bovine serum albumin [14]) was 160 nM.

B7: Fmoc-FGGGD-NH2 (peptide)
peptide: FGGGD
HELM: PEPTIDE1{[O=C(OCC1c2ccccc2-c2ccccc21)[*:2]].F.G.G.G.D.[am]}$$$$V2.0
SMILES: NC(=O)[C@H](CC(=O)O)NC(=O)CNC(=O)CNC(=O)CNC(=O)[C@H](Cc1ccccc1)NC(=O)OCC1c2ccccc2-c2ccccc21
For B7, the Kd (bovine serum albumin [14]) was 200 nM.

B8: Fmoc-GGSGD-NH2 (peptide)
peptide: GGSGD
HELM: PEPTIDE1{[O=C(OCC1c2ccccc2-c2ccccc21)[*:2]].G.G.S.G.D.[am]}$$$$V2.0
SMILES: NC(=O)[C@H](CC(=O)O)NC(=O)CNC(=O)[C@H](CO)NC(=O)CNC(=O)CNC(=O)OCC1c2ccccc2-c2ccccc21
notes: also called the glycine variant
B8 gave a Kd (bovine serum albumin [15]) of 1300 nM.

B9: Fmoc-WGSGD-NH2 (peptide)
peptide: WGSGD
HELM: PEPTIDE1{[O=C(OCC1c2ccccc2-c2ccccc21)[*:2]].W.G.S.G.D.[am]}$$$$V2.0
SMILES: NC(=O)[C@H](CC(=O)O)NC(=O)CNC(=O)[C@H](CO)NC(=O)CNC(=O)[C@H](Cc1c[nH]c2ccccc12)NC(=O)OCC1c2ccccc2-c2ccccc21
notes: also called Fmoc-Trp-GSGD
With B9 the “fold tighter than Fmoc-FGSGD-NH2” value (bovine serum albumin [13]) was 3 fold and the Kd (bovine serum albumin [16]) was roughly 60 nM.

B10: PK15L1-CG4L1 bicyclic (peptide)
peptide: ACSDRFRNCIFDLGFCG
HELM: PEPTIDE1{A.C.S.D.R.F.R.N.C.I.F.D.L.G.F.C.G}|CHEM1{[c1c(C[*:1])cc(C[*:3])cc1C[*:2]]}$PEPTIDE1,CHEM1,2:R3-1:R1|PEPTIDE1,CHEM1,9:R3-1:R2|PEPTIDE1,CHEM1,16:R3-1:R3$$$V2.0
SMILES: CC[C@H](C)[C@@H]1NC(=O)[C@@H]2CSCc3cc(cc(c3)CSC[C@@H](C(=O)NCC(=O)O)NC(=O)[C@H](Cc3ccccc3)NC(=O)CNC(=O)[C@H](CC(C)C)NC(=O)[C@H](CC(=O)O)NC(=O)[C@H](Cc3ccccc3)NC1=O)CSC[C@H](NC(=O)[C@H](C)N)C(=O)N[C@@H](CO)C(=O)N[C@@H](CC(=O)O)C(=O)N[C@@H](CCCNC(=N)N)C(=O)N[C@@H](Cc1ccccc1)C(=O)N[C@@H](CCCNC(=N)N)C(=O)N[C@@H](CC(N)=O)C(=O)N2
For B10, the “IC50 for inhibition” value (kallikrein) was 200 nM.
